Data on seven molecules can be found in patent publication US20260001928A1 (CORTERIA PHARMACEUTICALS, priority 2022, published 2026).

For assay [1], the target named is human corticotropin-releasing factor 2a (CRF2a receptor) (human), Q13324. Briefly: cell-based or functional assay.
The next assay concerns the target T1, CRF1R receptor (UniProt P34998 24-415, limits assumed).
T1 sequence (looked up): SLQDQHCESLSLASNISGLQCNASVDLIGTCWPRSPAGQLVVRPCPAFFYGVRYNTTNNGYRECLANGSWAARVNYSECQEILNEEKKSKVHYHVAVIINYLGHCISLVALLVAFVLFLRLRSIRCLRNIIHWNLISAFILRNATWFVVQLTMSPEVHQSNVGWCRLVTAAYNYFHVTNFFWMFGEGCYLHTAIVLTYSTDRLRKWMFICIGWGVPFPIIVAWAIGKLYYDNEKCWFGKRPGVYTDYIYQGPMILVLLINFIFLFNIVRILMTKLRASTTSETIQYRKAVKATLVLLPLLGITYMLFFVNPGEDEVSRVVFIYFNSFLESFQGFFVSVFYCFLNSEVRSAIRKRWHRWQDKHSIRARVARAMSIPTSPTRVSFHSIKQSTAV
Briefly: cell-based or functional assay.

*1 amine or outer side, *2 acyl side, *3 side chain or, on linkers, in order; H or OH if unused. Where no end group is shown, it is not given here. Side-chain parts run from the residue outwards. [ ]: non-standard residue; d: D form. The star is where a group is joined. C16 diacid = O=C(O)CCCCCCCCCCCCCCC(=O)*; γGlu = O=C(O)[C@H](CCC(=O)[*:2])N[*:1]; C14 diacid = O=C(O)CCCCCCCCCCCCC(=O)*; NMeI = CC[C@H](C)[C@H](NC)C(=O)O; Api = NC1(C(=O)O)CCNCC1; AEEA = NCCOCCOCC(=O)O; Aib = CC(C)(N)C(=O)O

The term EC50 denotes the concentration needed to bring the measured effect to its halfway point. A low value points to greater potency.

human corticotropin-releasing factor 2a (CRF2a receptor) (human), Q13324, sequence (Q13324 20-411): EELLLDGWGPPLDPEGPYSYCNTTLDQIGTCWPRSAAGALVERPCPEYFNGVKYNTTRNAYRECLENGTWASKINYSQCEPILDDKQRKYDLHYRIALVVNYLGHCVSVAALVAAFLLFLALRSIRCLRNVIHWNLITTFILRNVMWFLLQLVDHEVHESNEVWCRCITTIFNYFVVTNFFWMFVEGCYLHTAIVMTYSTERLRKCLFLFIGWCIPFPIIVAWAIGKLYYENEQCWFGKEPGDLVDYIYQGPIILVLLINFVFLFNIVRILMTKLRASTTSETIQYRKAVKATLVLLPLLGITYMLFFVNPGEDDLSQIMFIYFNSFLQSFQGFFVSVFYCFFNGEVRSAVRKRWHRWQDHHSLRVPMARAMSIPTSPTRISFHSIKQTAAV

B1: SEQ ID NO 175 (peptide)
peptide: Ac-IVLSLD[dV]PIKLK([AEEA-AEEA-γGlu-γGlu-C14 diacid])KILLEQEKQKKQREQAETN[Api]QILAQV-NH2
SMILES: CC[C@H](C)[C@H](NC(C)=O)C(=O)N[C@H](C(=O)N[C@@H](CC(C)C)C(=O)N[C@@H](CO)C(=O)N[C@@H](CC(C)C)C(=O)N[C@@H](CC(=O)O)C(=O)N[C@@H](C(=O)N1CCC[C@H]1C(=O)N[C@H](C(=O)N[C@@H](CCCCN)C(=O)N[C@@H](CC(C)C)C(=O)N[C@@H](CCCCNC(=O)COCCOCCNC(=O)COCCOCCNC(=O)CC[C@H](NC(=O)CC[C@H](NC(=O)CCCCCCCCCCCCC(=O)O)C(=O)O)C(=O)O)C(=O)N[C@@H](CCCCN)C(=O)N[C@H](C(=O)N[C@@H](CC(C)C)C(=O)N[C@@H](CC(C)C)C(=O)N[C@@H](CCC(=O)O)C(=O)N[C@@H](CCC(N)=O)C(=O)N[C@@H](CCC(=O)O)C(=O)N[C@@H](CCCCN)C(=O)N[C@@H](CCC(N)=O)C(=O)N[C@@H](CCCCN)C(=O)N[C@@H](CCCCN)C(=O)N[C@@H](CCC(N)=O)C(=O)N[C@@H](CCCNC(=N)N)C(=O)N[C@@H](CCC(=O)O)C(=O)N[C@@H](CCC(N)=O)C(=O)N[C@@H](C)C(=O)N[C@@H](CCC(=O)O)C(=O)N[C@H](C(=O)N[C@@H](CC(N)=O)C(=O)NC1(C(=O)N[C@@H](CCC(N)=O)C(=O)N[C@H](C(=O)N[C@@H](CC(C)C)C(=O)N[C@@H](C)C(=O)N[C@@H](CCC(N)=O)C(=O)N[C@H](C(N)=O)C(C)C)[C@@H](C)CC)CCNCC1)[C@@H](C)O)[C@@H](C)CC)[C@@H](C)CC)C(C)C)C(C)C
Consider B1, for which the EC50 [nM] (cAMP) in assay [1] worked out at 18.9 nM. Besides, the “Emax (% I)” value with CRF1R receptor was found to be 5%.

B2: SEQ ID NO 178 (peptide)
peptide: [NMeI]VLSLD[dV]PIKLK([AEEA-AEEA-γGlu-C14 diacid])KILLEQEKQKKQREQAETN[Aib]QILAQV-NH2
modifications: N-terminus assumed
SMILES: CC[C@H](C)[C@H](NC)C(=O)N[C@H](C(=O)N[C@@H](CC(C)C)C(=O)N[C@@H](CO)C(=O)N[C@@H](CC(C)C)C(=O)N[C@@H](CC(=O)O)C(=O)N[C@@H](C(=O)N1CCC[C@H]1C(=O)N[C@H](C(=O)N[C@@H](CCCCN)C(=O)N[C@@H](CC(C)C)C(=O)N[C@@H](CCCCNC(=O)COCCOCCNC(=O)COCCOCCNC(=O)CC[C@H](NC(=O)CCCCCCCCCCCCC(=O)O)C(=O)O)C(=O)N[C@@H](CCCCN)C(=O)N[C@H](C(=O)N[C@@H](CC(C)C)C(=O)N[C@@H](CC(C)C)C(=O)N[C@@H](CCC(=O)O)C(=O)N[C@@H](CCC(N)=O)C(=O)N[C@@H](CCC(=O)O)C(=O)N[C@@H](CCCCN)C(=O)N[C@@H](CCC(N)=O)C(=O)N[C@@H](CCCCN)C(=O)N[C@@H](CCCCN)C(=O)N[C@@H](CCC(N)=O)C(=O)N[C@@H](CCCNC(=N)N)C(=O)N[C@@H](CCC(=O)O)C(=O)N[C@@H](CCC(N)=O)C(=O)N[C@@H](C)C(=O)N[C@@H](CCC(=O)O)C(=O)N[C@H](C(=O)N[C@@H](CC(N)=O)C(=O)NC(C)(C)C(=O)N[C@@H](CCC(N)=O)C(=O)N[C@H](C(=O)N[C@@H](CC(C)C)C(=O)N[C@@H](C)C(=O)N[C@@H](CCC(N)=O)C(=O)N[C@H](C(N)=O)C(C)C)[C@@H](C)CC)[C@@H](C)O)[C@@H](C)CC)[C@@H](C)CC)C(C)C)C(C)C
In assay [1], B2 yielded an EC50 [nM] (cAMP) of 6.5 nM. Also, the “Emax (% I)” value in the assay with CRF1R receptor amounted to 1%.

B3: SEQ ID NO 177 (peptide)
peptide: [NMeI]VLSLD[dV]PIKLK([γGlu-C14 diacid])KILLEQEKQK[Aib]QREQAETN[Aib]QILAQV-NH2
modifications: N-terminus assumed
SMILES: CC[C@H](C)[C@H](NC)C(=O)N[C@H](C(=O)N[C@@H](CC(C)C)C(=O)N[C@@H](CO)C(=O)N[C@@H](CC(C)C)C(=O)N[C@@H](CC(=O)O)C(=O)N[C@@H](C(=O)N1CCC[C@H]1C(=O)N[C@H](C(=O)N[C@@H](CCCCN)C(=O)N[C@@H](CC(C)C)C(=O)N[C@@H](CCCCNC(=O)CC[C@H](NC(=O)CCCCCCCCCCCCC(=O)O)C(=O)O)C(=O)N[C@@H](CCCCN)C(=O)N[C@H](C(=O)N[C@@H](CC(C)C)C(=O)N[C@@H](CC(C)C)C(=O)N[C@@H](CCC(=O)O)C(=O)N[C@@H](CCC(N)=O)C(=O)N[C@@H](CCC(=O)O)C(=O)N[C@@H](CCCCN)C(=O)N[C@@H](CCC(N)=O)C(=O)N[C@@H](CCCCN)C(=O)NC(C)(C)C(=O)N[C@@H](CCC(N)=O)C(=O)N[C@@H](CCCNC(=N)N)C(=O)N[C@@H](CCC(=O)O)C(=O)N[C@@H](CCC(N)=O)C(=O)N[C@@H](C)C(=O)N[C@@H](CCC(=O)O)C(=O)N[C@H](C(=O)N[C@@H](CC(N)=O)C(=O)NC(C)(C)C(=O)N[C@@H](CCC(N)=O)C(=O)N[C@H](C(=O)N[C@@H](CC(C)C)C(=O)N[C@@H](C)C(=O)N[C@@H](CCC(N)=O)C(=O)N[C@H](C(N)=O)C(C)C)[C@@H](C)CC)[C@@H](C)O)[C@@H](C)CC)[C@@H](C)CC)C(C)C)C(C)C
As to B3, the EC50 [nM] (cAMP) in assay [1] is 0.86 nM. For the same molecule, the “Emax (% I)” value in the assay with CRF1R receptor turned out to be 10%.

B4: SEQ ID NO 173 (peptide)
peptide: Ac-IVLSLD[dV]PIKLK([AEEA-AEEA-γGlu-C14 diacid])KILLEQEKQK[Aib]QREQAETN[Api]QILAQV-NH2
SMILES: CC[C@H](C)[C@H](NC(C)=O)C(=O)N[C@H](C(=O)N[C@@H](CC(C)C)C(=O)N[C@@H](CO)C(=O)N[C@@H](CC(C)C)C(=O)N[C@@H](CC(=O)O)C(=O)N[C@@H](C(=O)N1CCC[C@H]1C(=O)N[C@H](C(=O)N[C@@H](CCCCN)C(=O)N[C@@H](CC(C)C)C(=O)N[C@@H](CCCCNC(=O)COCCOCCNC(=O)COCCOCCNC(=O)CC[C@H](NC(=O)CCCCCCCCCCCCC(=O)O)C(=O)O)C(=O)N[C@@H](CCCCN)C(=O)N[C@H](C(=O)N[C@@H](CC(C)C)C(=O)N[C@@H](CC(C)C)C(=O)N[C@@H](CCC(=O)O)C(=O)N[C@@H](CCC(N)=O)C(=O)N[C@@H](CCC(=O)O)C(=O)N[C@@H](CCCCN)C(=O)N[C@@H](CCC(N)=O)C(=O)N[C@@H](CCCCN)C(=O)NC(C)(C)C(=O)N[C@@H](CCC(N)=O)C(=O)N[C@@H](CCCNC(=N)N)C(=O)N[C@@H](CCC(=O)O)C(=O)N[C@@H](CCC(N)=O)C(=O)N[C@@H](C)C(=O)N[C@@H](CCC(=O)O)C(=O)N[C@H](C(=O)N[C@@H](CC(N)=O)C(=O)NC1(C(=O)N[C@@H](CCC(N)=O)C(=O)N[C@H](C(=O)N[C@@H](CC(C)C)C(=O)N[C@@H](C)C(=O)N[C@@H](CCC(N)=O)C(=O)N[C@H](C(N)=O)C(C)C)[C@@H](C)CC)CCNCC1)[C@@H](C)O)[C@@H](C)CC)[C@@H](C)CC)C(C)C)C(C)C
In assay [1], B4 returned an EC50 [nM] (cAMP) of 28.1 nM. Further, in the assay with CRF1R receptor, the “Emax (% I)” value was -1%.
Ac-IVLSLD[dV]PIKLK([AEEA-γGlu-γGlu-C14 diacid])KILLEQEKQKKQREQAETN[Aib]QILAQV-NH2 [SEQ ID NO 174] had an EC50 [nM] (cAMP) in assay [1] of 16.2 nM. Besides, in the assay with CRF1R receptor, the “EC50” value was greater than 250 nM and the “Emax (% I)” value was found to be 11%.

B5: SEQ ID NO 176 (peptide)
peptide: [NMeI]VLSLD[dV]PIKLK([γGlu-C14 diacid])KILLEQEKQKAQREQAETN[Aib]QILAQV-NH2
modifications: N-terminus assumed
SMILES: CC[C@H](C)[C@H](NC)C(=O)N[C@H](C(=O)N[C@@H](CC(C)C)C(=O)N[C@@H](CO)C(=O)N[C@@H](CC(C)C)C(=O)N[C@@H](CC(=O)O)C(=O)N[C@@H](C(=O)N1CCC[C@H]1C(=O)N[C@H](C(=O)N[C@@H](CCCCN)C(=O)N[C@@H](CC(C)C)C(=O)N[C@@H](CCCCNC(=O)CC[C@H](NC(=O)CCCCCCCCCCCCC(=O)O)C(=O)O)C(=O)N[C@@H](CCCCN)C(=O)N[C@H](C(=O)N[C@@H](CC(C)C)C(=O)N[C@@H](CC(C)C)C(=O)N[C@@H](CCC(=O)O)C(=O)N[C@@H](CCC(N)=O)C(=O)N[C@@H](CCC(=O)O)C(=O)N[C@@H](CCCCN)C(=O)N[C@@H](CCC(N)=O)C(=O)N[C@@H](CCCCN)C(=O)N[C@@H](C)C(=O)N[C@@H](CCC(N)=O)C(=O)N[C@@H](CCCNC(=N)N)C(=O)N[C@@H](CCC(=O)O)C(=O)N[C@@H](CCC(N)=O)C(=O)N[C@@H](C)C(=O)N[C@@H](CCC(=O)O)C(=O)N[C@H](C(=O)N[C@@H](CC(N)=O)C(=O)NC(C)(C)C(=O)N[C@@H](CCC(N)=O)C(=O)N[C@H](C(=O)N[C@@H](CC(C)C)C(=O)N[C@@H](C)C(=O)N[C@@H](CCC(N)=O)C(=O)N[C@H](C(N)=O)C(C)C)[C@@H](C)CC)[C@@H](C)O)[C@@H](C)CC)[C@@H](C)CC)C(C)C)C(C)C
As for B5, the EC50 [nM] (cAMP) in assay [1] came to 0.99 nM. Further, the “Emax (% I)” value with CRF1R receptor amounted to 8%.
Ac-VLSLD[dV]PIKLK([γGlu-C16 diacid])QILLKQERQKKQREQAEKNKQILEQV-NH2 [SEQ ID NO 3]: in assay [1], the EC50 [nM] (cAMP) turned out to be 0.16 nM. Further, in the assay with CRF1R receptor, the “EC50” value is greater than 250 nM and the “Emax (% I)” value is 27%.
